The source of these data is the DeepSol protein solubility set.

A short description of this data set: soluble on expression in E. coli; label from the status in PepcDB or PDB records.
As to “CGSSSHETSYGYATLSYADYWAGELGQSRDVLLAGNAEADRAGDLDAGMFDAVSRATHGHGAFRQQFQYAVEVLGEKVLSKQETEDSRGRKKWEYETDPSVTKMVRASASFQDLGEDGEIKFEAVEGAVALADRASSFMVDSEEYKITNVKVHGMKFVPVAVPHELKGIAKEKFHFVEDSRVTENTNGLKTMLTEDSFSARKVSSMESPHDLVVDTVGTGYHSRFGSDAEASVMLKRADGSELSHREFIDYVMNFNTVRYDYYGDDASYTNLMASYGTKHSADSWWKTGRVPRISCGINYGFDRFKGSGPGYYRLTLIANGYRDVVADVRFLPKYEGNIDIGLKGKVLTIGGADAETLMDAAVDVFADGQPKLVSDQAVSLGQNVLSADFTPGTEYTVEVRFKEFGSVRAKVVAQ”, the “soluble on expression in E. coli” value is “soluble”.
As to “AVGTPITISVPSLPYANSASEIVLSQLRDIGFDVRLESTEFPSVWLSKVYKAKDYDMSVVAHVEARDIPNLFGNPDYYLGFDDEQVRELLAQADSGDADSYVSTMKKVVNRIMDQAGADTLFNLPNIVVTQPDVSGVPTNLVADGLVVSNISRSED”, the “soluble on expression in E. coli” value is “not soluble”.
For the sequence “MSTATRPSSSATTSVILENPVSQSQPTERLVLRLNRKKKKVSWKDGTVDNEFMQKKSSKKCCIFHKQKPFDEDDSEEEDDNNHHCDHNHEHSESGEASSSNDSKAVDMGHHHHHHSH”, the “soluble on expression in E. coli” value is reported as “soluble”.
To “MSLKREIILYKSISTDLLEQLKNRFIVHQHQLKSEMDDSFFSDLQRVEGIIGSKLRVDGHLLDQAPHLKIVTNISVGYDNLEIEELTKRGIMATNTPDVLTDTVADTVFGLLLATSRRICELDQYVKLGRWDENIGEHLFGVDVHHKTLGIIGMGRIGLAVAERAHYGFKMKIVYHNRSTHSYAEKNINATYASLEELLTVSDFVLVMAPLVPETVKLIGEKEFDLMKETAIFLNGSRGELVDELALIHALQSKKIWGAGLDVYEQEPISKESLLLQLKNVVTLPHIGSATRETRYKMAKLAVDNLMKGFTGEVPPSLINPDVLTDEGHHHHHH” belongs “not soluble”.
To “GPGSMEERKTASGSAYYLPSPLLLSQNQGEERVKFVVVSGGVCSSLGKGVTTSAIGALLHASGYRVCSIKIDPYINIDAGLMSPYEHGEVYVLEDGGEADLDLGNYERWMSVHLTRDHNITTGKMYQKLLTKERAGGFLGKTVQLVPHFTNEVVNHIFKIC” belongs “not soluble”; to “DADLATGAKVFSANCAACHAGGINLVNAEKTLKKEALEKFGMNSIVAITTQVTNGKAGMPAFKGRLTDDQIAAVAAYVLDQAEKGW”, “soluble”.
For “MSEVVTDRLRMALEAMAQKDDDAAWEVIDGDDEINQLYLDLEDDCIDLLALQQPVAGDLRLIASSFKIITDLERIGDLAANLAEYTLDADRDMFPEVDVQAIGDRTIEMVTDAMAAYASADVEACYAIAERDDDIDERCRSASQTVIRDLIETEIDAATDDAEIEALMQDVSRLLLTVRDLERVGDHAVNISARTVYMVDNDDELIY” the value was “soluble”; for “AKEKDTIRTEGVVTEALPNATFRVKLDSGPEILAYISGKMRMHYIRILPGDRVVVEITPYDPTRGRIVYRK”, “soluble”; for “MGHHHHHHSHGLPLWVSERILQQINQLTHYEPVIGIMGKTGAGKSSLCNALFAGEVSPVSDVAACTRDPLRFRLQIGEHFMTIVDLPGVGESGVRDTEYAALYREQLPRLDLILWLIKADDRALATDEHFYRQVIGEAYRHKMLFVISQS”, “not soluble”.
Turning to “MSLDLSLNNLYSISTVELIQAFANTPASVTSLNLSGNSLGFKNSDELVQILAAIPANVTSLNLSGNFLSYKSSDELVKTLAAIPFTITVLDLGWNDFSSKSSSEFKQAFSNLPASITSLNLRGNDLGIKSSDELIQILAAIPANVNSLNLRGNNLASKNCAELAKFLASIPASVTSLDLSANLLGLKLEHHHHHH”, the “soluble on expression in E. coli” value is recorded as “not soluble”.
To “MSSTIKAIAVLKGDSPVQGVITFTQESSGGPVTVSGEIKNMDANAQRGFHVHQFGDNSNGCTSAGPHFNPTGTNHGDRTAEVRHVGDLGNVKTDASGVAKVQISDSQLSLVGPHSIIGRTIVIHAGEDDLGKTDHPESLKTGNAGARSACGVIGIAAAAALEHHHHHH” belongs “soluble”; to “MPDVPETVGTPDGSTEFEHRPTTDQSFENALAKARNGTRLTVDDAVELFTTGTDRDGIDHDRKEQVLEAADRRRAEVVGDEVTFVANLNNNVTTACNTGCLFCNFKDRSEQFRSDYQEDHGGFTKTPSESRQIVQDALDRGIYEVCSVSGLHPALALDTEHREILETSDRGDLNYRSPDEYETDPATYCEQLDAMNVGDIHLHSMTPEEAYHARRGTDWSYEEVFSRLQDAGLDSVPGTAAEILVDEVRDVICPGKIRTDEWLEAMAAAASVGLDMTSTMMYGHVENEYHRALHLQRIRDLQDRTGAITEFVPLSFVHEETPLYERGMVDGGATVDEDELMIAVSRLFLDNVDHIQASWVKYGDTQGLKMLTCGADDFMGTILSEEITKRAGGDYGEFRSFQEYADMITAIGRTPVERSTDYEQRRVIDPDADVLGPQLGPRADGTPLLD”, “not soluble”.
To “MQYNPLGKTDLRVSRLCLGCMTFGEPDRGNHAWTLPEESSRPIIKRALEGGINFFDTANSYSDGSSEEIVGRALRDFARREDVVVATKVFHRVGDLPEGLSRAQILRSIDDSLRRLGMDYVDILQIHRWDYNTPIEETLEALNDVVKAGKARYIGASSMHASQFAQALELQKQHGWAQFVSMQDHYNLIYREEEREMLPLCYQEGVAVIPWSPLARGRLTRPWGETTARLVSDEVGKNLYKESDENDAQIAERLTGVSEELGATRAQVALAWLLSKPGIAAPIIGTSREEQLDELLNAVDITLKPEQIAELETPYKPHPVVGFK” belongs “soluble”; to “MVYPIRLYGDPVLRRKARPVEDFSGIKRLAEDMLETMFEAKGVGLAAPQIGLSQRLFVAVEYADEPEGEEERPLRELVRRVYVVANPVITYREGLVEGTEGCLSLPGLYSEEVPRAERIRVEYQDEEGRGRVLELEGYMARVFQHEIDHLDGILFFERLPKPKREAFLEANRAELVRFQKEARALLKELSQG”, “soluble”; to “MAHHHHHHMGVPTMERSHGRRSPDEVRYPHIVLNVLGQSYSSACIEVGSTRVVCAVHHPQQLIDEYRGSRGRVACTVRRSSRAQKHELAFRADVTPEKDLALALEGVVEQAVVLEKIPQLLVEVAVEILAEDGGLWDAIATGVCAALASGGFEMYDTFSACGAALLPDGSIVTDPSATEWNTAKATAVTCAMLNSGNMCFTAQRGSCEPTTALDLVMAALKGTLARKNVISSQLCEQFAF”, “not soluble”.
To “MAHHHHHHMRPTFPALGSRAKGYENRVMVYAHRRHRAWYLPPKLAHARSPLANKSPDEYGNTWDPRTGVEWYHRLRRRGAYRHWPWARWNDDPVRQHQELSCRRTFSAAVTGANEGVPLWNYYAEVGQEYGLPSHFPLSFMAPFIHQYTSRAWSRKEIERHLKVVEERTGLRTIQQACDATSELLEWGEEEMGVVPHGLLQHVVMLAEDIVLQNKKKAYRKAAHERGILRTTTMERYYALPHLRTGPPMPTTLEQPSGEFPWGKFSTMVGGTRIHPLYRPDGFFKDNMYPA” belongs “not soluble”; to “GMSARDVFHEVVKTALKKDGWQITDDPLTISVGGVNLSIDLAAQKLIAAERQGQKIAVEVKSFLKQSSAISEFHTALGQFINYRGALRKVEPDRVLYLAVPLTTYKTFFQLDFPKEIIIENQVKMLVYDVEQEVIFQWIN”, “soluble”.
For the sequence “MGSDKIHHHHHHMTWGCHHLIKKVDASFSLGPISFTLEPGTVTALVGDNGSGKSTFFRLWMDLIKANQGTWERKEGWKEDTAYVPQQLIGIEAFTLEELAYLYEGMYVKWDQKTFERLVESFSLPMKKPLHSLSVGMQKKALFSMAIARKPNLFLLDEPFAGVDMDGQEQMKDELIRYLTGHEQATVLFATHSAQEVKELADYLLVLHQGQMLGFYEKDRLLSSWGRFWLEGNASAIKNEENVVSMKIAGTRIEIITSDALRFEEQIAAAALEKVEAQPLELHEIVRLLKKRNVSVS”, the “soluble on expression in E. coli” value is recorded as “not soluble”.
For “APTSSNDTGKTVVAVTACPTGIAHTYMAAEKLQETANKLGVRIKVETNGSRGVENRLTDKEIAEADGVIIAADVQVDMPRFDGKHLIAKPVAAGIHKPEELIKEAISGNAPVYKAESGSEATEST” the value was “not soluble”.
